Test results reported in patent publication US20220154156A1, “PROTEINS AND METHODS FOR DISRUPTING BACTERIAL COMMUNICATION” (REGENTS OF THE UNIVERSITY OF MINNESOTA, priority 2019, published 2022).

What was measured:
[1] = test system: biofilm of complex soil microbial community; assay: Biofilm microbial community analysis (16S, MiSeq); assay type: cell-based
Protocol: DNA extractions were carried out on biofilms. Submerged wells from the strip-well plates were drained of excess cells/water. Biofilm was scraped from the polypropylene well and put into Powerbead® tubes for DNA extraction (MoBio Powersoil® DNA Extraction Kit). Purified DNA samples were submitted to the University of Minnesota's Genomics Center for 16S rRNA sequencing. Using the Genomics Center platform, each sample underwent amplification, indexing, normalization, pooling, size selection, and final QC for sequencing. The V4 region of the 16s rRNA gene was amplified using primer 515f (5′-GTGCCAGCMGCCGCGGTAA-3′ (SEQ ID NO:14)). After the library preparation steps, it was confirmed all samples passed QC and were submitted for sequencing.
All samples were processed using Mothur v1.35.1. For each sample, 1,250 sequences were used for final analyses. […] Analysis of similarity (ANOSIM) and analysis of molecular variances (AMOVA) were used to evaluate the beta diversity (community composition) among samples using Bray-Curtis dissimilarity matrices (BC) (Bray & Curtis 1957; Clarke 1993). Ordination of Bray-Curtis matrices was performed using principal coordinate analysis (PCoA) to further analyze diversity of sample days throughout the tank (Anderson & Willis 2003). […] All of alpha values evaluated at α=0.05.

[2] = test system: complex soil microbial community; assay: Biofilm quantification in flow-through recirculating bioreactor; assay type: cell-based; details: over 21 days
Protocol: After overnight induction (18° C., 0.2% L-Arabinose, 200 RPM shaking), cells overexpressing proteins were centrifuged (4,400×g, 20 min, 4° C.) and re-suspended in 100 mM potassium phosphate buffer, pH 7, at a concentration of 0.4 g/mL wet weight (0.2 g/mL for the 1× lactonase beads). Gel beads (1 mm diameter) containing the lactonase/control bacteria cultures were made using a dripping method while gelation occurred, using a method similar to a previously used protocol^41 400 mg PEG (average molecular weight, 10,000 Da) was mixed with 4 mL acetic acid (0.01M) until the PEG dissolved. […]
The flow-through system used in this study consisted of three 3-liter tanks set up in parallel. […] Each tank contained three liters of 15× diluted LB media in water and a pre-broken 96-stripwell plate was submerged to the bottom (so that individual wells could be harvested for either biofilm quantification or DNA extraction). […]
Inside each of the tanks sat two submerged 96-stripwell plates. […] Individual wells were extracted in triplicate for crystal violet biofilm quantification (OD550 nm) using a similar protocol as previously described^13. […] To quantify biofilm, the remaining crystal violet stained to the wells was solubilized with 125 μL of 30% acetic acid and this solution was read on a spectrophotometer at 550 nm. […]

[3] = test system: Xanthomonas translucens pv. undulosa LMG892; assay: Wheat leaf infection; assay type: in vivo; details: single spraying of 1 mL, 10 mg/mL
Protocol: (§1) FIG. 30A-30F show control of plant infections by a single spraying of 1 mL of lactonase solution (10 mg/mL) on plant leaves and crop. (A) and (B) Soft rot potato assay.
(§2) Specifically, we could establish infection systems for corn, wheat, and barley plants, and a crop infection system for potato (tubers and leaves).

[4] = test system: Pectobacterium carotovorum CIR354; assay: Soft rot potato assay; assay type: in vivo; details: single spraying of 1 mL, 10 mg/mL
Protocol: as §1, §2

B1: SsoPox W263I: improved variant of the hyperthermostable lactonase SsoPox from Sulfolobus solfataricus, exhibiting higher catalytic rates (protein, UniProt Q97VT7 1-314, looked up, variant W263I)
Aryldialkylphosphatase: MRIPLVGKDSIESKDIGFTLIHEHLRVFSEAVRQQWPHLYNEDEEFRNAVNEVKRAMQFGVKTIVDPTVMGLGRDIRFMEKVVKATGINLVAGTGIYIYIDLPFYFLNRSIDEIADLFIHDIKEGIQGTLNKAGFVKIAADEPGITKDVEKVIRAAAIANKETKVPIITHSNAHNNTGLEQQRILTEEGVDPGKILIGHLGDTDNIDYIKKIADKGSFIGLDRYGLDLFLPVDKRNETTLRLIKDGYSDKIMISHDYCCTIDIGTAKPEYKPKLAPRWSITLIFEDTIPFLKRNGVNEEVIATIFKENPKKFFS
- Aeromonas share of the biofilm community ([1]; day 7, lactonase 1×): 79.68%
- Aeromonas share of the biofilm community ([1]; day 7, lactonase 2×): 42.16%
- reduction of biofilm formation [2]: 2 fold
- leaf spots on wheat leaves [3]: Absence of leaf spots
- maceration of potato slices [4]: less maceration
